B1: Clone B IgG (antibody, V domains shown)
VH: QVQLQESGPGLVKPSQTLSLTCTVSGGSISSGGIYWTWIRQHPGKGLEWIGAIAYSGSTYYNPSLKSRVTISVDTSKNQFSLKLSSVTAADTAVYYCARGIEYQHFDYWGQGTLVTVSS
VL: not shown
notes: IgG format; AAGA mutation in the Fc region stated for the FcRn test; also called GDF15 antibody agent Clone B
B2: Clone C IgG (antibody, V domains shown)
VH: B1 VH with I34Y, T37S, A54V, S58H, I101V, D107S, Y108L
VL: not shown
notes: IgG format; AAGA mutation in the Fc region stated for the FcRn test; also called GDF15 antibody agent Clone C
B3: Clone D IgG (antibody, V domains shown)
VH: B1 VH with S30N, I34Y, A54Y, Y60V, I101V, D107N, Y108E
VL: not shown
notes: IgG format
B4: Clone A IgG (antibody, V domains shown)
VH: B1 VH with S30T, I34S, T37S, A54V, I101V
VL: not shown
notes: IgG format
B5: Clone G IgG (antibody, V domains shown)
VH: QVQLVQSGAEVKKPGSSVKVSCKASGGTFQGYAISWARQAPGQGLEWMGGIIPPYATANYAQKFQGRVTITADESTSTAYMELSSLRSEDTAVYYCARGVGELHLDVWGQGTMVTVSS
VL: not shown
notes: IgG format
B6: Clone Q IgG (antibody, V domains shown)
VH: B1 VH
VL: not shown
notes: IgG format

From patent US20250019427A1 (BYOMASS, published 2025) come the findings set out here.

Numbering of substitutions follows the chain as printed.

The target in one assay is T1, GDF15 (Homo sapiens (Human), UniProt Q99988 30-308).
T1 sequence: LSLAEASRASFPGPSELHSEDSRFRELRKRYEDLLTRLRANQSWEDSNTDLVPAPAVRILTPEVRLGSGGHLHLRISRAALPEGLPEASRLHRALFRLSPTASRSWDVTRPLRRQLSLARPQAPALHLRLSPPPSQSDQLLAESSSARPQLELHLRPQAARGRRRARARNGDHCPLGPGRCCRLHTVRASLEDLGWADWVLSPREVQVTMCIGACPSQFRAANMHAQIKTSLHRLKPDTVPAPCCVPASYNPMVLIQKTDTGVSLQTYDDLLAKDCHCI
In words: cell-based or functional assay.
With B1, the “GDF15 - GFRAL RET pERK IC50 (pM)” value is 104 pM and the “GDF15 - GFRAL-RET Luciferase IC50 (pM)” value was determined as 66.2 pM.
The corresponding values for B2 are 145 pM and 39.6 pM.
The corresponding values for B3 are 50.4 pM and 58.7 pM.
On the same counts, the results for B4 are 102 pM and 75 pM.
Take B5: the “GDF15 - GFRAL RET pERK IC50 (pM)” value amounted to 66.7 pM and the “GDF15 - GFRAL-RET Luciferase IC50 (pM)” value came out at 97.1 pM.

The target of a further assay is T2, GDNF (UniProt P39905 78-211).
T2 sequence (looked up): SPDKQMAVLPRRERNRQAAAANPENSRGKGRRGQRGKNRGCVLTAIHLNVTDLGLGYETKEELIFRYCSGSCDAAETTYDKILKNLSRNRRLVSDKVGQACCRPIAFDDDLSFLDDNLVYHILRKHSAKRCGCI
In words: Octet BLI, IgG on tip, avid.
With B1, the binding result is given as “no binding (tested: 100 nM)”.
In the case of B6, the binding result is listed as “no binding (tested: 100 nM)”.
Take B2: the binding result is listed as “no binding (tested: 100 nM)”.
With B3, the binding result is given as “no binding (tested: 100 nM)”.
The same measure, in the same setting: as for B4, the entry is “no binding (tested: 100 nM)”.
Consider B5, for which the binding result is reported as “no binding (tested: 100 nM)”.

Another assay deals with GDF8 (UniProt O14793 267-375). In words: Octet BLI, IgG on tip, avid.
Consider B1, for which the binding result is “no binding (tested: 100 nM)”.
Still for that read-out and setting: as for B6, the entry is “no binding (tested: 100 nM)”; as for B2, “no binding (tested: 100 nM)”; as for B3, “no binding (tested: 100 nM)”.
As to B4, the binding result was “no binding (tested: 100 nM)”.
Still for that read-out and setting: as for B5, the entry is “no binding (tested: 100 nM)”.

Another assay deals with T3, GDF10 (UniProt P55107 369-478).
T3 sequence (looked up): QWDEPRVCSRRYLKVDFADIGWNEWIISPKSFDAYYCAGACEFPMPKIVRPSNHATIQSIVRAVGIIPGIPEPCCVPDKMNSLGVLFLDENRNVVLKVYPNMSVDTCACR
In words: Octet BLI, IgG on tip, avid.
B1: the binding result was “no binding (tested: 100 nM)”.
On the same count and under the same terms, next, B6: “no binding (tested: 100 nM)”.
Consider B5, for which the affinity, expressed as Kd, was 36.8 nM.

For another assay, the target named is T4, GDF11 (UniProt O95390 299-407).
T4 construct: Also the GDF-11 ligand of the ActRIIB/SMAD reporter assay
T4 sequence (O95390 299-407 limits assumed): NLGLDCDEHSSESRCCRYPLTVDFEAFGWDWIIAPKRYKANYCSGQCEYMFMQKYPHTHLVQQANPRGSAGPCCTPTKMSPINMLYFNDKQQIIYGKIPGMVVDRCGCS
In words: Octet BLI, IgG on tip, avid.
Regarding B1, the binding result was “no binding (tested: 100 nM)”.
Consider B6, for which the binding result is given as “no binding (tested: 100 nM)”.
On to B2, for which the binding result is recorded as “no binding (tested: 100 nM)”.
As to B3, the binding result is on record as “no binding (tested: 100 nM)”.
Consider B4, for which the binding result is given as “no binding (tested: 100 nM)”.
On to B5, for which the binding result is reported as “no binding (tested: 100 nM)”.

For another assay, the target named is T5, Human Activin A Fc (human, UniProt P08476 311-426).
T5 sequence (looked up): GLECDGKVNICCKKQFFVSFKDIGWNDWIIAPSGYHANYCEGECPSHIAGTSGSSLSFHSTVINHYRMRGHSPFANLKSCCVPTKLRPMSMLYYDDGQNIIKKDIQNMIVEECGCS
In words: Octet BLI, IgG on tip, avid.
The molecule B2 showed a Kd of 6.48 nM.
The same measure, in the same setting: next, B3: 7.87 nM; B4: 7.34 nM.
As for B5, the binding result is listed as “no binding (tested: 100 nM)”.

The target in another assay is T6, Human Activin B (human, UniProt P09529 293-407).
T6 construct: Also used for the Activin B ligand of the ActRIIB/SMAD reporter assay, where the species is not restated
T6 sequence (looked up): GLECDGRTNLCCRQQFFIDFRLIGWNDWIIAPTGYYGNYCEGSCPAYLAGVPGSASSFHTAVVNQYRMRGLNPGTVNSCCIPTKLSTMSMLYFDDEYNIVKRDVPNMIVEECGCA
In words: Octet BLI, IgG on tip, avid.
In the case of B1, binding was characterised by a dissociation constant (Kd) of 145 nM.
On the same count and under the same terms, as for B6, the figure is 172 nM; as for B2, 132 nM.
As to B3, the binding result was “no binding (tested: 100 nM)”.
Same read-out and setting: next, B4: “no binding (tested: 100 nM)”; B5: “no binding (tested: 100 nM)”.

The target of another assay is T7, Human BMP10 (human, UniProt O95393 317-424).
T7 sequence (looked up): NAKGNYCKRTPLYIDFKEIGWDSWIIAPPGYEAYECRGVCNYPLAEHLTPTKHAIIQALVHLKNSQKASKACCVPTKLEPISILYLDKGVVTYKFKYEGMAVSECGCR
In words: Octet BLI, IgG on tip, avid.
For the molecule B6, the binding result is recorded as “no binding (tested: 100 nM)”.
Same read-out and setting: next, B2: “no binding (tested: 100 nM)”; B3: “no binding (tested: 100 nM)”.

The target of another assay is T8, Cyno GDF15 Fc (cyno, UniProt G7PWZ3 193-308).
T8 construct: also called cyno GDF15-Fc fusion
T8 sequence: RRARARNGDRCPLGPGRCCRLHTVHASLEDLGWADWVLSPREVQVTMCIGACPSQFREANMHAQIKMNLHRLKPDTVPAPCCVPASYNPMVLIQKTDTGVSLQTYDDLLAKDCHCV
In words: Octet BLI, IgG on AHC tip, avid. Here is the method: (§1) Briefly, ForteBio affinity measurements were performed by loading IgGs on-line onto AHC sensors. Sensors were equilibrated off-line in assay buffer for 30 min and then monitored on-line for 60 seconds for baseline establishment. Sensors with loaded IgGs were exposed to 100 nM antigen for 3 minutes, and afterwards were transferred to assay buffer for 3 min for off-rate measurement. All kinetics were analyzed using the 1:1 binding model.
Take B1: the Kd came out at 0.422 nM.
Still for that read-out and setting: next, B2: 0.0862 nM; B3: 0.141 nM; B5: 0.107 nM.

Another assay addresses T9, Mouse GDF15 Fc (mouse, UniProt Q9Z0J7 189-303, limits assumed).
T9 construct: also called mouse GDF15Fc fusion
T9 sequence (looked up): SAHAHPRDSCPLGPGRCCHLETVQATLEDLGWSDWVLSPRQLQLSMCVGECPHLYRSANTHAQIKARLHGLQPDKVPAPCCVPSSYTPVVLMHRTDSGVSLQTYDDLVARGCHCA
In words: Octet BLI, IgG on AHC tip, avid. As to the method:
as §1
On to B1, for which binding was put at a Kd of 0.358 nM.
For the molecule B2, the Kd is 0.331 nM.
Molecule B3 yielded a Kd of 0.299 nM.
On the same count and under the same terms, as for B5, the figure is 0.191 nM.

The target of a further assay is T10, Rat GDF-15 Fc (rat, UniProt Q9Z0J6 189-303, limits assumed).
T10 sequence (looked up): T9 sequence (looked up) with A4L, Q63L, K75R, R110Q
The assay can be described thus: Octet BLI, IgG on AHC tip, avid. As to the method: as §1
B1: the Kd came to 0.621 nM.
On the same count and under the same terms, next, B2: 0.437 nM; B3: 0.467 nM.
Consider B5, for which binding was characterised by a dissociation constant (Kd) of 1.01 nM.

In a further assay the target is T3, GDF10. The assay can be described thus: Octet BLI, IgG on tip, avid; P.F. = binder with poor fit.
As to B3, the binding result is listed as “binds”.
Still for that read-out and setting: as for B4, the entry is “binds”.

The next assay concerns the target T11, Human BMP9 (human, UniProt Q9UK05 320-429).
T11 sequence (looked up): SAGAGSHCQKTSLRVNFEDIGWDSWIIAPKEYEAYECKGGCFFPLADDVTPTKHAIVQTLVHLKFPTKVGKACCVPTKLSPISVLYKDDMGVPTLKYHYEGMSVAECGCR
The assay is described as above.
Turning to B1, the binding result is “binds”.
Still for that read-out and setting: as for B6, the entry is “binds”; as for B2, “binds”; as for B3, “binds”.
In the case of B4, the binding result was “binds”.
As to B5, the binding result is reported as “binds”.

A further assay concerns the target T7, Human BMP10. Described as above.
B4: the binding result is reported as “binds”.
The same measure, in the same setting: as for B5, the entry is “binds”.
